Data taken from article PMC6345753, “Curcumin inhibits the TGF-β1-dependent differentiation of lung fibroblasts via PPARγ-driven upregulation of cathepsins B and L”.

Columns and labels:
Conditions in all cases: protein: recombinant;recombinant; tags: ;; copies: 1;1; blunt
PPARγ;RXRα [1] = biological target: T1, PPARγ;RXRα (human;human, UniProt P37231;P19793 1-505;1-462, |); experiment: EMSA; positive control; anti-PPARγ supershift; 4 fmol labeled DNA, 3.7 pmol PPARγ, 3.9 pmol RXRα in 20 µl; 20 ng poly(dI.dC), 2.5% glycerol, 0.05% NP-40, 5 mM MgCl2; on ice 20 min; 4% native gel, 1x TBE, 4 °C; pH and salt not given
PPARγ;RXRα [2] = biological target: T1, PPARγ;RXRα; experiment: EMSA; two shifted complexes; anti-PPARγ supershift; 4 fmol labeled DNA, 3.7 pmol PPARγ, 3.9 pmol RXRα in 20 µl; 20 ng poly(dI.dC), 2.5% glycerol, 0.05% NP-40, 5 mM MgCl2; on ice 20 min; 4% native gel, 1x TBE, 4 °C; pH and salt not given
PPARγ;RXRα [3] = biological target: T1, PPARγ;RXRα; experiment: EMSA; labeled mutant probe; 4 fmol labeled DNA, 3.7 pmol PPARγ, 3.9 pmol RXRα in 20 µl; 20 ng poly(dI.dC), 2.5% glycerol, 0.05% NP-40, 5 mM MgCl2; on ice 20 min; 4% native gel, 1x TBE, 4 °C; pH and salt not given

| Binder | binding result (PPARγ;RXRα [2]) | binding result (PPARγ;RXRα [3]) | other results |
| --- | --- | --- | --- |
| consensus PPRE (dsDNA) DNA 1: CAAAACTAGGTCAAAGGTCA DNA 2: TGACCTTTGACCTAGTTTTG | – | – | binding result (PPARγ;RXRα [1]): binds |
| CAT L-PPRE (dsDNA) DNA 1: TTATGGGGTAAAGGCAGAGGTAATTATT DNA 2: AATAATTACCTCTGCCTTTACCCCATAA | binds | – | – |
| CAT B-PPRE (dsDNA) DNA 1: TCTCCTGACCTGTGATCCGCCCGCCTCG DNA 2: CGAGGCGGGCGGATCACAGGTCAGGAGA | binds | – | – |
| CAT B-PPREmt (dsDNA) DNA 1: TCTCCTGATGTAGGATACTCCTGCCTCG DNA 2: CGAGGCAGGAGTATCCTACATCAGGAGA | – | no binding | – |
| CAT L-PPREmt (dsDNA) DNA 1: TTATGCGGTACCCGCTTCGGTAATTATT DNA 2: AATAATTACCGAAGCGGGTACCGCATAA | – | no binding | – |
